Measured values taken from patent publication CN105968201A (UNIV NANCHANG, dated 2016).

Assays:
[1] = target: T1, 前列腺特异性膜抗原 (PSMA) on LNCaP cells (UniProt Q04609 1-750, limits assumed); test: cell ELISA and immunofluorescence on fixed LNCaP cells (PSMA-positive) against MKN45 cells (PSMA-negative), anti-M13 detection
T1 construct: whole, on cells; Cells were fixed with 4% paraformaldehyde before the assay; also called prostate specific membrane antigen; LNCaP细胞(表达PSMA)

重组表达的PSMA胞外区蛋白 = target: T2, 重组表达的PSMA胞外区蛋白 (UniProt Q04609 44-750, limits assumed); test: indirect phage ELISA, PSMA extracellular region coated at 5 μg/mL, HRP-anti-M13 detection
T2 construct: extracellular domain; Expressed from vector pRAG2a in HEK-293 cells, purified with HisTrap FF Crude and detected with an anti-His antibody; also called 前列腺特异性膜抗原膜外区; PSMA蛋白
T2 sequence (Q04609 44-750 limits assumed): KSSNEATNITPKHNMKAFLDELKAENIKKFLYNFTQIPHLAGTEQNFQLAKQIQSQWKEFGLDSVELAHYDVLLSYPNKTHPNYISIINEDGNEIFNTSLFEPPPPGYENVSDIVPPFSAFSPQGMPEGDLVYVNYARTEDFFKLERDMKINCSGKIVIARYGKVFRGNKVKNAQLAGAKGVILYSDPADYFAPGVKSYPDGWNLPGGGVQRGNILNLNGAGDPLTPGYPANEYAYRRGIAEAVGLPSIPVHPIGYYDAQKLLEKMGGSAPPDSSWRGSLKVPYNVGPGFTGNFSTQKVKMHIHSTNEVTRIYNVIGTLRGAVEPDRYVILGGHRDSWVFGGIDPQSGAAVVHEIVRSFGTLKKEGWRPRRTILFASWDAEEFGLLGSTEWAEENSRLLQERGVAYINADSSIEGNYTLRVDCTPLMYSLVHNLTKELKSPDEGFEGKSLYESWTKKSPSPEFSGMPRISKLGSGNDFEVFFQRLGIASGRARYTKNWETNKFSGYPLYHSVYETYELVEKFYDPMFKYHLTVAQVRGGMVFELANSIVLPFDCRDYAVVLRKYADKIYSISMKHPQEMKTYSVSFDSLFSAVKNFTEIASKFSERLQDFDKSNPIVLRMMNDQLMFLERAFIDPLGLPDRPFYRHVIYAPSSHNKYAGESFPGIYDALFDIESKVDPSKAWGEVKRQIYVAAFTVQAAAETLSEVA

T1 sequence (Q04609 whole entry): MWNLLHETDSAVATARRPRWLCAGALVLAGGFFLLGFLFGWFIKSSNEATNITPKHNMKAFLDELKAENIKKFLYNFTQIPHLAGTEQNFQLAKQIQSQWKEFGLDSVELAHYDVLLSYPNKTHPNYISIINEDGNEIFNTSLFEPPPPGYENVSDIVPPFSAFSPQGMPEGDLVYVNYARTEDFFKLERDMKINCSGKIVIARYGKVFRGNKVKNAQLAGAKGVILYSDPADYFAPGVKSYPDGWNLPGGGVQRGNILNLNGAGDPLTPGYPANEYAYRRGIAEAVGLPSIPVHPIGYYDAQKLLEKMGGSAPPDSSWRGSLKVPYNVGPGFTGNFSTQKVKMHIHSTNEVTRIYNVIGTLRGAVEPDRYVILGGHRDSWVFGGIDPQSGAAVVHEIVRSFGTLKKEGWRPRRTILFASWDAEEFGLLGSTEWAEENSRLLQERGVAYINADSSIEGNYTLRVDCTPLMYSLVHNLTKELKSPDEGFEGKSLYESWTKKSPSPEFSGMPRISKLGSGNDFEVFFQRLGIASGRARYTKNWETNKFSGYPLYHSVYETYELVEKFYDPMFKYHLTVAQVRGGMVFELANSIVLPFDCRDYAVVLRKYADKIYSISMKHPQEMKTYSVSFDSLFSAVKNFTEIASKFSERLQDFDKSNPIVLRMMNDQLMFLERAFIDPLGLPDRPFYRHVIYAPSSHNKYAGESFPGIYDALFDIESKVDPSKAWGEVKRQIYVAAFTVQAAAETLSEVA

binding result [1]: binds
binding result (重组表达的PSMA胞外区蛋白): binds
B1: 抗前列腺特异性膜抗原单域重链抗体噬菌体阳性克隆 (VHH)
VHH: QVQLVESGGGLVQAGGSLRLSCAASGRFSRYAMGWFRQAPGKEREFIASISRSGGTTYYGDSVKGRFTISRDNAKNTVYLQMNTLKAEDTAVYYCAARTKGFGLRGQYHYWGQGTQVTVSS
notes: also called 针对前列腺特异性膜抗原的单域重链抗体阳性克隆; 展示本发明所述纳米抗体的噬菌体克隆
